# Results published in US20210355194A1 (TWIST BIOSCIENCE, published 2021).
# Read-outs that look alike come from different tables or passages of the source.
# What was measured:
# [1] = biological target: T1, COVID S1 RBD Fc fusion (Antigen 1) (SARS-CoV-2, UniProt P0DTC2 319-541); experiment: phage ELISA
# [2] = biological target: T2, S1 Fc fusion protein (SARS-CoV-2, UniProt P0DTC2 14-685); experiment: phage ELISA
# [3] = biological target: T3, COVID S1 RBM Fc fusion (Antigen 2) (SARS-CoV-2, UniProt P0DTC2 437-508); experiment: phage ELISA
# [4] = biological target: T1, COVID S1 RBD Fc fusion (Antigen 1); experiment: phage ELISA; remark: listed apart in the source
# [5] = biological target: T2, S1 Fc fusion protein; experiment: phage ELISA; remark: listed apart in the source
# [6] = biological target: T3, COVID S1 RBM Fc fusion (Antigen 2); experiment: phage ELISA; remark: listed apart in the source
# [7] = biological target: T4, COVID S1 RBD Fc fusion (Antigen 1) (SARS-CoV-2, UniProt P0DTC2 319-541); experiment: phage ELISA; remark: listed apart in the source
# [8] = biological target: T5, S1 Fc fusion protein (SARS-CoV-2, UniProt P0DTC2 14-685); experiment: phage ELISA
# T5 construct: domain: S1
# [9] = biological target: T6, COVID S1 RBM Fc fusion (Antigen 2) (SARS-CoV-2, UniProt P0DTC2 437-508); experiment: phage ELISA
# T6 construct: domain: RBM
# [10] = biological target: T4, COVID S1 RBD Fc fusion (Antigen 1); experiment: phage ELISA; remark: listed apart in the source
# [11] = biological target: T5, S1 Fc fusion protein; experiment: phage ELISA; remark: listed apart in the source
# [12] = biological target: T6, COVID S1 RBM Fc fusion (Antigen 2); experiment: phage ELISA; remark: listed apart in the source
# [13] = biological target: T7, SARS-CoV-2 S1 (antigen of the Carterra SPR kinetics) (SARS-CoV-2, UniProt P0DTC2 16-685); experiment: Carterra SPR
# [14] = biological target: T7, SARS-CoV-2 S1 (antigen of the Carterra …); experiment: Carterra SPR; remark: listed apart in the source
Binder,ELISA fold over background [1],ELISA fold over background [2],ELISA fold over background [3],ELISA fold over background [4],ELISA fold over background [5],ELISA fold over background [6],ELISA fold over background [7],ELISA fold over background [8],ELISA fold over background [9],ELISA fold over background [10],ELISA fold over background [11],ELISA fold over background [12],koff [13],kon [13],Kd [14],koff [14],kon [14]
"SARS-CoV-2 variant 1-27 (antibody, V domains shown) VH: EVQLLESGGGLVQPGGSLRLSCAASGFTFSSYAMTWVRQAPGKGLEWVSAISGSGGGTYYADSVKGRFTISRDNSKNTLYLQMNSLRAEDTAVYYCASSSSWQFDYWGQGTLVTVSS VL: QSALTQPASVSGSPGQSITISCTGTSSYVGHYNLVSWYQQHPGKAPKLMIYEGSRRPSGVSNRFSGSKSGNTASLTISGLQAEDEADYYCCSYAGSYTHYVFGGGTKLTVL",1.9 fold,1.3 fold,1.6 fold,1.9 fold,1.3 fold,1.6 fold,–,–,–,–,–,–,–,–,–,–,–
"SARS-CoV-2 variant 1-10 (antibody, V domains shown) VH: EVQLLESGGGLVQPGGSLRLSCAASGFTFSSYDMSWVRQAPGKGLEWVSVISGSGGSTYYADSVKGRFTISRDNSKNTLYLQMNSLRAEDTAVYYCAKGPLVGWYFDLWGQGTLVTVSS VL: QSALTQPASVSGSPGQSITISCTGTSSNVGSYNLVSWYQQHPGKAPKLMIYEGTKRPSGVSNRFSGSKSGNTASLTISGLQAEDEADYYCCSYAGSSSFVVFGGGTKLTVL",17.4 fold,1.3 fold,1.1 fold,17.4 fold,1.3 fold,1.1 fold,–,–,–,–,–,–,–,–,–,–,–
"SARS-CoV-2 variant 1-7 (antibody, V domains shown) VH: EVQLLESGGGLVQPGGSLRLSCAASGFTFSSYDMSWVRQAPGKGLEWVSVISGSGGSTYYADSVKGRFTISRDNSKNTLYLQMNSLRAEDTAVYYCAKGPLVGWYFDLWGQGTLVTVSS VL: QSALTQPASVSGSPGQSITISCTGTSSDFGSYNLVSWYQQHPGKAPKLMIYEGNKRPSGVSNRFSGSKSGNTASLTISGLQAEDEADYYCCSYAGSSTFVVFGGGTKLTVL",3.3 fold,1.7 fold,1.6 fold,3.3 fold,1.7 fold,1.6 fold,–,–,–,–,–,–,–,–,–,–,–
"SARS-CoV-2 variant 1-36 (antibody, V domains shown) VH: EVQLLESGGGLVQPGGSLRLSCAASGLTFSSYAMSWVRQAPGKGLEWVSDISGSGGSTYYADSVKGRFTISRDNSKNTLYLQMNSLRAEDTAVYYCVKGTIPIFGVIRSAFDYWGQGTLVTVSS VL: QSALTQPASVSGSPGQSITISCTGTSSDVGSYSLVSWYQQHPGKAPKLMIYEGDKRPSGVSNRFSGSKSGNTASLTISGLQAEDEADYYCCSYAGSYSYVVFGGGTKLTVL",1.2 fold,1.1 fold,0.8 fold,1.2 fold,1.1 fold,0.8 fold,–,–,–,–,–,–,–,–,–,–,–
"SARS-CoV-2 variant 1-35 (antibody, V domains shown) VH: EVQLLESGGGLVQPGGSLRLSCAASGFTFSNYAMSWVRQAPGKGLEWVSDISGSGGSTYYADSVKGRFTISRDNSKNTLYLQMNSLRAEDTAVYYCVKGTIPIFGVIRSAFDYWGQGTLVTVSS VL: QSALTQPASVSGSPGQSITISCTGTSSDVGSYSLVSWYQQHPGKAPKLMIYEGTKRPSGVSNRFSGSKSGNTASLTISGLQAEDEADYYCCSYAGSYSYVVFGGGTKLTVL",1.8 fold,1.4 fold,1.6 fold,1.8 fold,1.4 fold,1.6 fold,–,–,–,–,–,–,–,–,–,–,–
"SARS-CoV-2 S1 variant 2-5 (antibody, V domains shown) VH: EVQLLESGGGLVQPGGSLRLSCAASGFTFSDFAMAWVRQAPGKGLEWVSAISGSGDITYYADSVKGRFTISRDNSKNTLYLQMNSLRAEDTAVYYCAREADGLHSPWHFDLWGQGTLVTVSS VL: DIQMTQSPSSLSASVGDRVTITCRASQSIHTYLNWYQQKPGKAPKLLIYAASALASGVPSRFSGSGSGTDFTLTISSLQPEDFATYYCQQSYSAPPYTFGQGTKVEIK",–,–,–,–,–,–,35.9 fold,24.3 fold,1.1 fold,35.9 fold,24.3 fold,1.1 fold,0.000259 s⁻¹,93900 M⁻¹ s⁻¹,2.8 nM,0.000259 s⁻¹,93900 M⁻¹ s⁻¹
"SARS-CoV-2 variant 1-48 (antibody, V domains shown) VH: EVQLLESGGGLVQPGGSLRLSCAASGFTFSSHAMYWVRQAPGKGLEWVSAISGSAGSTYYADSVKGRFTISRDNSKNTLYLQMNSLRAEDTAVYYCAHDTKDFWSGYCIFDPWGQGTLVTVSS VL: QSALTQPASVSGSPGQSITISCTGTSSDIGSYNLVSWYQQHPGKAPKLMIYEGTKRPSGVSNRFSGSKSGNTASLTISGLQAEDEADYYCCSYAGSRTYVFGGGTKLTVL",2.1 fold,0.8 fold,0.8 fold,2.1 fold,0.8 fold,0.8 fold,–,–,–,–,–,–,–,–,–,–,–
"SARS-CoV-2 variant 1-25 (antibody, V domains shown) VH: EVQLLESGGGLVQPGGSLRLSCAASGFTFSDYAMNWVRQAPGKGLEWVSIISGSGGSTYYADSVKGRFTISRDNSKNTLYLQMNSLRAEDTAVYYCAREGYRDYLWYFDLWGQGTLVTVSS VL: QSALTQPASVSGSPGQSITISCSGTSSDVGSYNLVSWYQQHPGKAPKLMIYEASKRPSGVSNRFSGSKSGNTASLTISGLQAEDEADYYCCSYAGSSTVFGGGTKLTVL",2.7 fold,1 fold,0.8 fold,2.7 fold,1 fold,0.8 fold,–,–,–,–,–,–,–,–,–,–,–
"SARS-CoV-2 variant 1-24 (antibody, V domains shown) VH: EVQLLESGGGLVQPGGSLRLSCAASGFTFSSYAMNWVRQAPGKGLEWVSIISGSGGSTYYADSVKGRFTISRDNSKNTLYLQMNSLRAEDTAVYYCAREGYRDYLWYFDLWGQGTLVTVSS VL: QSALTQPASVSGSPGQSITISCTGTSSDVGYYNLVSWYQQHPGKAPKLMIYEGNKRPSGVSNRFSGSKSGNTASLTISGLQAEDEADYYCCSYAGGSVVFGGGTKLTVL",11 fold,1.1 fold,1.3 fold,11 fold,1.1 fold,1.3 fold,–,–,–,–,–,–,–,–,–,–,–
"SARS-CoV-2 variant 1-23 (antibody, V domains shown) VH: EVQLLESGGGLVQPGGSLRLSCAASGFTFSSYAISWVRQAPGKGLEWVSIISGSGGSTYYADSVKGRFTISRDNSKNTLYLQMNSLRAEDTAVYYCAREGYRDYLWYFDLWGQGTLVTVSS VL: QSALTQPASVSGSPGQSITISCTGTSNDVGSYNLVSWYQQHPGKAPKLMIYEGNKRPSGVSNRFSGSKSGNTASLTISGLQAEDEADYYCCSYAGSYTVFGGGTKLTVL",3.6 fold,1.6 fold,1.6 fold,3.6 fold,1.6 fold,1.6 fold,–,–,–,–,–,–,–,–,–,–,–
"SARS-CoV-2 S1 variant 2-2 (antibody, V domains shown) VH: EVQLLESGGGLVQPGGSLRLSCAASGFTFSRHAMNWVRQAPGKGLEWVSGISGSGDETYYADSVKGRFTISRDNSKNTLYLQMNSLRAEDTAVYYCARDLPASYYDSSGYYWHNGMDVWGQGTLVTVSS VL: DIQMTQSPSSLSASVGDRVTITCRASQTINTYLNWYQQKPGKAPKLLIYSASTLQSGVPSRFSGSGSGTDFTLTISSLQPEDFATYYCQQSYSTFTFGQGTKVEIK",–,–,–,–,–,–,39.6 fold,4.7 fold,1.1 fold,39.6 fold,4.7 fold,1.1 fold,0.000906 s⁻¹,77400 M⁻¹ s⁻¹,11.7 nM,0.000906 s⁻¹,77400 M⁻¹ s⁻¹
